How the values were obtained:
[1] = tested on: CA20948 (pancreatic) tumor, rich in somatostatin (SST-2) receptors; experiment: In vivo fluorescence imaging of CA20948 tumor bearing rats; parameters: species or system male Lewis rats
Description: (§1) A non-invasive in vivo fluorescence imaging apparatus was employed to assess the efficacy of indocyanine green (ICG) in three different rat tumor cell lines of the inventive contrast agents developed for tumor detection in animal models. A LaserMax Inc. laser diode of nominal wavelength 780 nm and nominal power of 40 mW was used. The detector was a Princeton Instruments model RTE/CCD-1317-K/2 CCD camera with a Rodenstock 10 mm F2 lens (stock #542.032.002.20) attached. An 830 nm […] (CVI Laser Corp., part #F10-830-4-2) was mounted in front of the CCD input lens, such that only emitted fluorescent light from the contrast agent was imaged.
(§2) Three tumor cell lines, DSL 6/A (pancreatic), Dunning R3327-H (prostate), and CA20948 (pancreatic), which are rich in somatostatin (SST-2) receptors were induced into male Lewis rats by solid implant technique in the left flank area (Achilefu et al., Invest. Radiology, 2000, pp. 479-485). Palpable masses were detected nine days post implant.
(§3) The animals were anesthetized with xylazine:ketamine:acepromazine (1.5:1.5:0.5^v/v) at 0.8 ml/kg via intramuscular injection. The left flank was shaved to expose the tumor and surrounding surface area. A 21-gauge butterfly needle equipped with a stopcock connected to two syringes containing heparinized saline was placed into the tail vein of the rat. […]

[2] = tested on: Dunning R3327-H (prostate) tumor; experiment: In vivo fluorescence imaging of Dunning R3327-H tumor bearing rats; parameters: species or system male Lewis rats; conditions: images at 2 and 30 minutes post administration, 0.5 ml of 0.42 mg/ml i.v.
Description: as §1, §2, §3

[3] = tested on: DSL 6/A (pancreatic) tumor; experiment: In vivo fluorescence imaging of DSL 6/A tumor bearing rats; parameters: species or system male Lewis rats; conditions: images at 2 and 30 minutes post administration, 0.5 ml of 0.42 mg/ml i.v.
Description: as §1, §2, §3

[4] = tested on: CA20948 rat tissues and organs; experiment: Fluorescence imaging of ex-vivo tissues and organs from CA20948 tumor bearing rat; type: in vivo; conditions: 27 hours post administration (FIG. 5)
Description: Individual organs were removed from the CA20948 rat which was injected with cytate 1 and were imaged.

Row | Compound | non-specific localization into the tumor line ([1]; compared to the other two lines) | perfusion of the agent into the tumor ([1]; images at 2 and 30 minutes post administration, 0.5 ml of 0.42 mg/ml i.v.) | perfusion of the agent into the tumor [2] | perfusion of the agent into the tumor [3] | uptake of the conjugate in adrenal glands ([4]; ex vivo organ) | uptake of the conjugate in heart ([4]; ex vivo organ) | uptake of the conjugate in liver ([4]; ex vivo organ) | uptake of the conjugate in pancreas ([4]; ex vivo organ) | uptake of the conjugate in spleen ([4]; ex vivo organ) | uptake of the conjugate in muscle ([4]; ex vivo tissue) | uptake of the conjugate in tumor tissue ([4]; ex vivo tissue)
1 | CC1(C)C(/C=C/C=C/C=C/C=C2\N(CCCCS(=O)(=O)O)c3ccc4ccccc4c3C2(C)C)=[N+](CCCCS(=O)(=O)[O-])c2ccc3ccccc3c21 [ICG, indocyanine green] | no non-specific localization | only a slight and transient perfusion that was cleared after only 30 minutes post injection | slow perfusion of the agent into the tumor over time | slow perfusion of the agent into the tumor over time |  |  |  |  |  |  | 
2 | C[C@@H](O)[C@H](NC(=O)[C@@H]1CSSC[C@H](NC(=O)[C@@H](Cc2ccccc2)NC(=O)CC[N+]2=C(/C=C/C=C/C=C/C=C3/N(CCC(=O)O)c4ccc5ccccc5c4C3(C)C)C(C)(C)c3c2ccc2ccccc32)C(=O)N[C@@H](Cc2ccc(O)cc2)C(=O)N[C@H](Cc2c[nH]c3ccccc23)C(=O)N[C@@H](CCCCN)C(=O)N[C@@H]([C@@H](C)O)C(=O)N1)C(=O)O [Cytate 1, monooctreotate-bisethylcarboxymethylindocyanine dye] |  |  |  |  | High uptake | Significant lower uptake | Significant lower uptake | High uptake | Significant lower uptake | Significant lower uptake | High uptake
